# Source: the DeepSol protein solubility set
# Assay: soluble on expression in E. coli; label from the status in PepcDB or PDB records
row,Sequence,soluble on expression in E. coli
1,MSFLEKLVAKYEPIKEEKPKLVPKPTRKRQPETTEIVVKTRRITRRNAKAPVKEEEIGHQKAQITIVDDEEFMEQPVQEPIEIEEEQQEESHLEIALPEQPNHEPMQSSPSLPRKSFKPDMHPIAKKGGKICIVDLGLTSHTLPTEQTPGFLKRLGENVGGSIDYSYESIDELIRTAPDAWSKASMGAIRGVMLMQELVTERSMHPKSKPMEKNRLLGEEMAKLNPNDFLNHKLLEVSSLDQTVFINVNLVFSALSIQHGSVRSIVNAMSNHWIDYLIPREQQGSFTTSKKTEPLTFFPGDLTNWPAALLAAAIKLDNDQVDVTRLPSVVNMLFKHHIKVRFDHARGLYRTKHDGQNPPKIVLPKRPIIDCTQFYKSSEDIDEEQVPSTSNFQSSSNSLSTSKSAGREHIPDSP,not soluble
2,MSFLVLPPEVNSALMFAGAGSGPTLAAAAAWDGLAAELGQAANSFSSATAALADTAWQGPAATAMAAAAAPYASWLSTAATRALSAAAQAKAAAAVYEAARAATVDPLLVAANRHQLVSLVLSNLFGQNAPAIAATEAAYEQLWAADVAAMVSYHSGASAVAAQLAPWAQAVRALPNPTAPALASGPAALAIPALGIGNTGIGNIFSIGNIGDYNLGNGNTGNANLGSGNTGQANLGSGNTGFFNFGSGNTANTNFGSGNLGNLNLGSGNDGNGNFGLGNIGDGNRGSGNVGSFNFGTANAGSFNVGSANHGSPNVGFANLGNNNLGIANLGNNNLGIANLGNNNIGIGLTGDNMIGIGALNSGIGNLGFGNSGNNNIGLFNSGNNNIGFFNSGDSNFGFFNSGDTNTGFGNAGFTNTGFGNAGSGNFGFGNAGNNNFGFGNSGFENMGVGNSGAYNTGSFNSGTLNTGDLNSGDFNTGWANSGDINTGGFHSGDLNTGFGSPVDQPVMNSGFGNIGTGNSGFNNSGDANSGFQNTNTGAFFIGHSGLLNSGGGQHVGISNSGTGFNTGLFNTGFNNTGIGNSATNAAFTTTSGVANSGDNSSGGFNAGNDQSGFFDG,not soluble
3,MSFNTIIDWNSCTAEQQRQLLMRPAISASESITRTVNDILDNVKARGDEALREYSAKFDKTTVTALKVSAEEIAAASERLSDELKQAMAVAVKNIETFHTAQKLPPVDVETQPGVRCQQVTRPVASVGLYIPGGSAPLFSTVLMLATPASIAGCKKVVLCSPPPIADEILYAAQLCGVQDVFNVGGAQAIAALAFGTESVPKVDKIFGPGNAFVTEAKRQVSQRLDGAAIDMPAGPSEVLVIADSGATPDFVASDLLSQAEHGPDSQVILLTPAADMARRVAEAVERQLAELPRAETARQALNASRLIVTKDLAQCVEISNQYGPEHLIIQTRNARELVDSITSAGSVFLGDWSPESAGDYASGTNHVLPTYGYTATCSSLGLADFQKRMTVQELSKEGFSALASTIETLAAAERLTAHKNAVTLRVNALKEQA,soluble
4,MSFQEIPIIDLQEAFDPATRSKFLEEVRDAIINVGFLLLKNYESLGPTEEDLQSIKQQAIEFFALPAKEKLQCEMLNSPHFLGYTRLANEITASHTDWREQIDLATELPAPKEGEPLYKNIEGPNLWPNPEVIPKFRPTIERFIEKMTALSNVFKDLVAESIGVDPKALNRYFKENQQCKMKLIAYPDVSELDGTKSAALDDTPETNQGVEPHRDSDLITYIYQATEHQNSLQVQNFQGHWITVPNIPGHLVVNNGQTLQAITGGVAKATIHRVLVPEKGTGTRISIPFFQTIDLDSSKGVVDNLPQEVIDLKNERDKKIKDWGVDTGFQFEPDVSKEPIGHAVFRNRIKSHQDVAKKWYPDVLKSVLQEYTH,soluble
5,MSFQLDQSTSVIKTAPPGRLEFKNEPIDIASSNIQDLAKMQTLDGYYQQTSLQLPQSQQYHRMYENVYNNQQILYAQTQNFQYPSTLLTNGSLAQTEWRGQQMDTSAYSNTGYSRSSTSQQPQYTQQVTENERIVYKPVDMPSPVDSGIGGDISILNPKEEFFTSADGGSMLERSSERTLSHRDSPLVIPKLYNNLGFQYVLEAPISTSVRRDDDRMTYVNKGQFYTVSLEYTPDLNKCLKSQTVKSQLMVVFREDKTYEEEIKTWQSWHARQHVSKQRILEIDSKNSSGMIGQIEEIGNNAVQFYWNPSDPSGVRISIAVQCLSTDFSTQKGVKGLPLHVQIDTYDGENDKVPFHRGYCQIKVFCDKGAERKLRDEDKRAQKRKVQEYTAGALPGGRKKSDGEYHDQCERSEFYHMRELDKPAALFIAPEEFEPRYVDSTSLSFDMSEIEPIPTKRPRTSERIMLYVRKRDEQIYQPLHVVPASLSGLALAIANKFGADPDKMSGVYKRCAKGITVKVDDEMLRLYCNEDTFIIDVEHATDGSTAATLIEVAPTNPNSYSNS,not soluble
6,MSFVQIRHISSQINRKTVSIVGSGPSGFYTAYHLLKKSPIPLNVTIWEKLPVPFGLSRYGVAPDHPEVKNCEETFTTCAEEFSSPTNQKHKFSFVGGITIGKEILLKELLDNQDAVILSYGCTGDRKLNIPGELGTKGVFSSREFVNWYNGHPDFAKDKRFTDFDWSKVSKVGIIGNGNVALDITRVLISNQIDEIWENTDISSLALNLLRRAPVKDVKLIARRDFVHSKFTNKELRELWELEKYGIRGRIDPKFFQKEMFDPSKYDRAFNRRVEMCSEYLKPFNERSKKNYKKAPPPSSGYDKFWELDYLKTPLKINRDDFGAINSLSLCNNRLNEDNSLQPLKDVNNIMTYKVDLLITSLGYAGVPMPEFSKLSIGFDKDHIANKQGRVLTSSGEIFPHLYASGWIRKGSQGVIASTMQDAFEVGDRVIQDLVVSGALSLENSIDLSNIKHTTWKDWERINKKELLRGKKEHKTRSKFLTFEELWNGVEGI,soluble
7,MSFVQPGLAQEKERMWRTLTVSGRGVESIPTTLSEVSLGVEIQGKTAQEVQHEAARRSSAVVALLKSRNVEKLQTTGIRLNPVYSYNNNVQRITGYAASNTVNFRIATEKAGTLLDEAVKAGATQINGISFVATDEAIASARQQALKEATQDAQQQASAVFSSLGFQAKEVVSIQVGGATAPPPPILYRAEAAKLSSADASTPVIGGEQQVEASVTLQISYLEHHHHHH,soluble
8,MSGEEKEKVKILHVANISTSATRDHIYNMFNYLGKIQDLKVYPSEGNITANTLLKTAFIKFDDERCVEVAQHLTNTVVIDCAIVCLPYPNPVIPDEESFFNSGGSTTAGQRQLPPHVTNKIQESDDGSALLITVDPTLEQLGLPAYPPLPADTDSAKVEEIRRTVYVGNLPKGVDGNEVLELFNMYFGEVMYARMASGPDALPCAYAYVEFSQQASVCNALQNDGFEFKERPLKIQHSRVAIIKPQAKTDEQALGEIEEAIRMGRNGDDRDRRRSRSPRRRRSPSPRRRRDSRDRDRDRDRDRRRSRDRRSRSRDRDRDRDRKRSRSRDRKRRSRSRDNKDRDRKRSRSRDRRRRSKSRDRKRERSRSRSKDRKRDKKRSRSRSPEKRRDKEDRKTEKKENENESSLREKLLEKKAARKDSSDDEWEEKPTPTNGEVKNEEIGNGDVVMASE,soluble
9,MSGEKIDITPKKDGGVLKLIKKEGQGVVKPTTGTTVKVHYVGTLENGTKFDSSRDRGDQFSFNLGRGNVIKGWDLGVATMTKGEVAEFTIRSDYGYGDAGSPPKIPGGATLIFEVELFEWSAEDISPDRDGTILRTIIVEGSKNSFPNDTSKVLAHCVGTYQGTEFYNREVNFHIGEGSEEGLPEGVERALRRFQLGEKSKIEIRGHKYTYGNSPPAGSNIPVNATLEFTIFLKEFEKVPATWEMTAEEKLDAAKQAKDRGTMYLQKGNLKLAYNKYKRAEEVLEYEKSTDPEKMAERETILNGAYLNLSLVCSKQNEQLECIKWCDKVLETKPGNVKALYRKATALLTMNEVRDAMKLFEKIVEVEPENKAAAQQIIVCRNTIREQNERDKKRFKNLFAKISTEEDKPTNTVEDEDEIVASTSGSSTSNA,soluble
10,MSGIWGNNLKVSIFGESHGNAIGINIDGLPSGIELDLDKIDKEMKRRAPGKNSISTSRNESDIPEILSGYFNGRTTGTPLCAIIRNSDTRSKDYGELKNLMRPGHADFTGNVRYSGFNDYRGGGHFSGRITAPLVFCGAICKQILSQKGIEIGAHIKKIKNIEDMSFDYVNISKQQLSNLQTLELPLLDLSKEEAMKNTIIDAKNQGDSVGGIIECAVVGINVGLGNPFFDSVESTLSHLLFSVPAVKGVEFGLGFELADMYGSQSNDEMYYEGNQVKSKTNNNGGIIGGITTGMPIIFKVAIKPTPSISRQQNTVNIKDKKDDILYIKGRHDPCIVQRAIPVIEAVTAIGIFDLMKGR,not soluble
11,MSGMWLWASVSPESTGIKMSESFAELFEESLKTLNLQPGAIITGIVVDIDGDWVTVHAGLKSEGVIPLEQFYNEAGELTIKVGDEVHVALDAVEDGFGETKLSREKAKRAECWIVLEAAFAAEEVVKGVINGKVKGGFTVDVNGIRAFLPGSLVDVRPVRDTTHLEGKELEFKVIKLDQKRNNVVVSRRSVLEAENSAEREALLETLQEGQQVKGIVKNLTDYGAFVDLGGIDGLLHITDMAWKRIKHPSEIVNVGDEVDVRVLKFDRERNRVSLGLKQMGEDPWVAITARYPEGTRVQARVTNLTDYGCFAELEEGVEGLVHVSEMDWTNKNIHPSKVVQVGDEVEVMVLDIDEERRRISLGIKQCKSNPWEDFSGQFNKGDKITGTIKSITDFGIFIGLDGGIDGLVHLSDISWNETGEEAVRRFKKGDELETVILSVDPERERISLGIKQLEDDPFSNFVAVNDKGAIVKGIVKEVDAKGAIVTLADDIEATLKASEISRDRVEDARNVLKEGEEIEAKIISVDRKSRVISLSIKSKDDAEEREAIQSLKNAPEAAADTTMAALLREAMAKQNLEHHHHHH,soluble
12,MSGSHHHHHHSSGIEGRSEVVMENVTAFWEEGFGELFEKAKQNNNNRKTSNGDDSLSFSNFSLLGTPVLKDINFKIERGQLLAVAGSTGAGKTSLLMMIMGELEPSEGKIKHSGRISFCSQFSWIMPGTIKENIIFGVSYDEYRYRSVIKACQLEEDISKFAEKDNIVLGEGGITLSGGQRARISLARAVYKDADLYLLDSPFGYLDVLTEKEIFESCVCKLMANKTRILVTSKMEHLKKADKILILHEGSSYFYGTFSELQNLQPDFSSKLMGCDSFDQFSAERRNSILTETLHRFSLEGDAPVSGGGGSGGGGSGGQMTVKDLTAKYTEGGNAILENISFSISPGQRVGLLGRTGSGKSTLLSAFLRLLNTEGEIQIDGVSWDSITLQQWRKAFGVIPQKVFIFSGTFRKNLDPYEQWSDQEIWKVADEVGLRSVIEQFPGKLDFVLVDGGCVLSHGHKQLMCLARSVLSKAKILLLDQPSAHLDPVTYQIIRRTLKQAFADCTVILCEHRIEAMLECQQFLVIEENKVRQYDSIQKLLNERSLFRQAISPSDRVKLFPHRNSSK,soluble
13,MSGTKVPSLPKGKEKPCVVTFATQSDRSNEPPPQPRVRKVTTIINTLGVVVRNTTTEIGVWVFTSCVEVSFPRSNSPIFSNFTLGTWMIVGLYPDATVASCSPWPLILKAYEMSVSYGTVFMKRKASELCHEKTVLYSEVVVPLVNPYSNMSYFERDPHLTAELYMIPGFGRVLGSSAYRQYLEDNRDNVSFIVQYCGGSLRGCSWIMSVVDGKAQTDGEFSDKDLREIAEFIRERHNKENESPPLPSNSIARHAGFVTEVFPQKNYLYCWSPQVSLEADHTAKFPQPPKHREVDSPMLSPLVGQWIQFDVQSKDLDKYMSTRSGYRLSIQEYLPINSPCGVGVVQCGKIVRVMISCILVKSTDHPMLFELQMFGPVIDKKSSLISGAFMQIVLEKTSSRIRRMSGVCWRVIYSLIVSGAENMVENSQSVRIEAISQRDAMETSHIIPIEKRTITNNTGVTTLKYQQPHQNPHYQEQRRDYYMGNNIQIQTAYNSTQLRKYQPKPKKFSSYTGESLEGHALVEKIMAHAKTGILWFFDNYNSSVHFIFDDFELNVGDYAYVKLIQKKEETAHLQFRWKWISGTKKLSPFNCRIDLFQLFIEEQVSYKSKDMLNRNTYTSKNFPIIFDADGIIKNPIPGAIYCVVILRKKIQVTQTESPTHKYQWIIDSAQSNPFIITEYYNPHNAFNRSFIASKQFSSSAALSTDSKKGSSGSEKSSTSPPLKSLTPPSDE,not soluble
